Here are results for one substance from article PMC3769231.

Test [1] addresses papain (from papaya latex) (papaya) (UniProt P00784). Put plainly: enzyme inhibition assay (Ki from substrate hydrolysis progress curves); papain activity in 50 mM phosphate buffer (pH 6.0), 40 µM Z-FR-AMC, 37°C, with or without NtCYS, reducing conditions.
The target of test [2] is human liver cathepsin L (human). Put plainly: enzyme inhibition assay (Ki from substrate hydrolysis progress curves); human cathepsin L activity in 400 mM sodium acetate buffer (pH 5.5), 40 µM Z-FR-AMC, 25°C, with or without NtCYS, reducing conditions.
The target in test [3] is recombinant NtCP14 (N. tabacum). The experiment in a line: enzyme inhibition assay (Ki(app) = [I0]/(V0/Vi-1)); apparent; recombinant NtCP14 activated in 100 mM sodium acetate (pH 4.0); hydrolysis of 40 µM Bz-FVR-AMC at 30°C, pH 6.0, reducing conditions, NtCYS varied.
Chain of recombinant NtCP14 (N. tabacum) (main, as listed by the source): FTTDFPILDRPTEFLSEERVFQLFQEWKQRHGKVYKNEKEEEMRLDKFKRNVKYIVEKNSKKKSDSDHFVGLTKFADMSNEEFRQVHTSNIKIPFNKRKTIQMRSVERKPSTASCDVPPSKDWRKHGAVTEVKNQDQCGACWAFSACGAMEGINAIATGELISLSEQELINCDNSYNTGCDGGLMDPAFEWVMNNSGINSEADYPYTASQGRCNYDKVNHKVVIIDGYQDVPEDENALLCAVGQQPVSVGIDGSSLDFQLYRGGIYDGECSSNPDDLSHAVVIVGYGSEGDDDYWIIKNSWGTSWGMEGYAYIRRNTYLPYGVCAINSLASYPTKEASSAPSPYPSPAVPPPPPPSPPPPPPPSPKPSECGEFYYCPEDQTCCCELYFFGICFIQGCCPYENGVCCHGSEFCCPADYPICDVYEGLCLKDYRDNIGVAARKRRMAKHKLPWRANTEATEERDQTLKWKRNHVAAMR

Chain of papain (from papaya latex) (papaya) (P00784 134-345): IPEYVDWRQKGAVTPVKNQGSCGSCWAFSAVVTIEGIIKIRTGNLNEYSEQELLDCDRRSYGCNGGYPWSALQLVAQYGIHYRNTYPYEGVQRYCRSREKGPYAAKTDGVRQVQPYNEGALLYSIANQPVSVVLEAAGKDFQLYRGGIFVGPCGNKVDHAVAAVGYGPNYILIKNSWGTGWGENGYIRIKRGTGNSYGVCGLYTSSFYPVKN

In the case of recombinant NtCYS (natural protein), the Ki in test [1] amounted to 64.5 nM; in test [2], 0.39 nM; in test [3] it was 740 nM.
